Reference: publication PMC12185008, “The PavMYB.C2-UFGT module contributes to fruit coloration via modulating anthocyanin biosynthesis in sweet cherry”

Biological target: T1, PavMYB.C2 (Prunus avium (sweet cherry), UniProt A0A6P5T6R9 1-74)
T1 sequence: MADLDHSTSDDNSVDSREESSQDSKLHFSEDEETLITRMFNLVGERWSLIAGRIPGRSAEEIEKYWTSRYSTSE
Assay: EMSA; EMSA/Gel-Shift Kit (Beyotime) with LightShift chemiluminescent EMSA kit (Thermo Fisher), standard protocol; buffer, salt, pH and temperature not stated
Conditions: protein: recombinant; tags: GST (pGEX-4T-1); label: 3' biotin (Methods); blunt

B1: UFGT promoter MBS3 probe (dsDNA)
DNA 1: TTCACTCCTCGACTCAGCAAGTGGTTATTTAGTGGTAGAGTTTGTTTTGA
DNA 2: TCAAAACAAACTCTACCACTAAATAACCACTTGCTGAGTCGAGGAGTGAA
binding result: binds

B2: UFGT promoter MBS1 probe (dsDNA)
DNA 1: GATCGATATTTAGAGAGAGAAACAACCACCCGCGTGATGTGTGAGAGAAA
DNA 2: TTTCTCTCACACATCACGCGGGTGGTTGTTTCTCTCTCTAAATATCGATC
binding result: no binding

B3: UFGT promoter MBS2 probe (dsDNA)
DNA 1: TGAGAGAAAGAAATAAAAATCAGAAACAAAGGTAGCGTTTTTCTTTCTTT
DNA 2: AAAGAAAGAAAAACGCTACCTTTGTTTCTGATTTTTATTTCTTTCTCTCA
binding result: no binding
